The experiment addresses GST-VCA (GST fusion of human N-WASP residues 392-505) on glutathione Sepharose (human) (UniProt O00401). Briefly: pull-down.

Sequence of GST-VCA (GST fusion of human N-WASP residues 392-505) on glutathione Sepharose (human) (O00401 392-505): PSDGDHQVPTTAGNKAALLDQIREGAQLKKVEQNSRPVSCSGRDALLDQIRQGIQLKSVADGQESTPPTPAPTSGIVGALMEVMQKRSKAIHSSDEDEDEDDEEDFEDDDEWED

“Arp2/3 complex endogenous in human platelet extracts (from UniProt P61158;P61160;O15145)” came in with a percent depleted from the extract by the beads above 80%.

The values above are taken from paper PMC2156126.
